Patent publication US20050251885A1, “Method for enhancing yield of recombinant protein production from plants” (UNIVERSITE LAVAL, priority 2002, published 2005)

B1: α-1 antichymotrypsin: human serpin, inhibitor of chymotrypsin-like proteases (protein, UniProt P01011 24-423, looked up)
Alpha-1-antichymotrypsin: HPNSPLDEENLTQENQDRGTHVDLGLASANVDFAFSLYKQLVLKAPDKNVIFSPLSISTALAFLSLGAHNTTLTEILKGLKFNLTETSEAEIHQSFQHLLRTLNQSSDELQLSMGNAMFVKEQLSLLDRFTEDAKRLYGSEAFATDFQDSAAAKKLINDYVKNGTRGKITDLIKDLDSQTMMVLVNYIFFKAKWEMPFDPQDTHQSRFYLSKKKWVMVPMMSLHHLTIPYFRDEELSCTVVELKYTGNASALFILPDQDKMEEVEAMLLPETLKRWRDSLEFREIGELYLPKFSISRDYNLNDILLQLGIEEAFTSKADLSGITGARNLAVSQVVHKAVLDVFEEGTEASAATAVKITLLSALVETRTIVRFNRPFLMIIVPTDTQNIFFMSKVTNPKQA

System: alfalfa leaf proteases (fraction #8)
Experiment: Fibronectin proteolysis by alfalfa leaf Mono-Q fraction #8 with protease inhibitors, immunodetection
Assay type: biochemical, alfalfa (cultivar Saranac)
Conditions: for proteolysis of fibronectin by the Mono-Q fraction in presence of inhibitor: 5 μl fraction #8, 350 ng fibronectin, 37° C., 15 min, FIG. 5B
Procedure: Firstly, a protein extract from alfalfa leaves was separated by chromatography to isolate a specific fraction containing the greatest protease activity. Alfalfa (cultivar Saranac) leaves were extracted by grinding in liquid nitrogen and resolubilization in 50 mM Tris-HCl, pH 6,8, containing 10 mM β-mercaptoethanol. The crude extract was centrifuged for 15 min at 10000 g at 4° C., and the supernatant was filtered through a 0.3 μm pore size filter. Fifteen mg of leaf proteins were then loaded on of a Mono-Q FPLC column (Pharmacia) equilibrated with extraction buffer. Proteins were eluted with a linear gradient of KCl (0 to 0.7 M) in extraction buffer, at a flow rate of 2 ml/min. Fractions of 500 μl were collected, and sample of each fraction was loaded onto a gelatin/PAGE gel (FIG. 5A). Fraction #8, which caused the highest proteolysis of gelatin in gel, was use to assess the protective effect of α-1 antichyinotrypsin.
Secondly, the identified fraction #8 was used in conjunction with various protease inhibitors to identify potential candidates for the inhibition of fibronectin proteolysis. In the experiment illustrated in FIG. 5B, 5 μl of fraction #8 was mixed with 350 ng of fibronectin and incubated at 37° C. for 15 min, in the presence of 2 μl H2O (lane 2), 2 μl of 10 mM chymostatin (lane 3) or 2 μl α-1 antichymotrypsin (lane 4). The control (lane 1) contained 5 μl extraction of buffer instead of alfalfa proteases. The reaction was stopped after 15 min. and fibronectin was immunodetected as in FIG. 1C. […] Note that both protein (α-1 antichymotrypsin) and chemical (chymostatin) molecules were efficient to decrease degradation of fibronectin.

| Molecule | proteolysis of fibronectin by the Mono-Q fraction in presence of inhibitor | stability of fibronectin on inhibiting alfalfa proteases (FIG. 5) |
| --- | --- | --- |
| CC(C)C[C@H](NC(=O)[C@@H](NC(=O)N[C@@H](Cc1ccccc1)C(=O)O)[C@@H]1CCN=C(N)N1)C(=O)N[C@H](C=O)Cc1ccccc1 [chymostatin, reference compound] | prevented | – |
| B1 | prevented | significantly increased |
